Results reported in the RNAGym collection of RNA variant scans (doi:10.1021/acssynbio.7b00057).

B1: Pistol ribozyme (parent)
chain: GGGUCGUUGUUCCAUAAUCGCGUGGAUAUGGCACGCAAGUUUCUACCGGGCACCGUAAAUGUCCGACUGGAGCCGUUCGGGCGGCUAUAAACAGACCUCAGGCCCGAAGCGUGGCGGCACCUGCCGCCGGUGGUAAAAAAGAUCGGAAGAGCACACGUCU

Variants of: B1
Experiment: aptazyme ON/OFF ratio, guanine; higher = stronger switching; co-transcriptional cleavage with and without guanine
For U7C G9C U11A C12A, the “aptazyme ON/OFF ratio” value was 1.07. With U7C G9C U11A C12G the “aptazyme ON/OFF ratio” value was 1. For U7C G9C U11A C12U, the “aptazyme ON/OFF ratio” value was 1.02. For U7C G9C U10G U11C C12G C13A, the “aptazyme ON/OFF ratio” value was 1.16. In the case of U7C G9C U10G U11C C12G C13G, the “aptazyme ON/OFF ratio” value is reported as 1.13. With U7C G9C U10G U11C C12G C13U the “aptazyme ON/OFF ratio” value was 1.12. For U7C G9C U11A C12U C13U, the “aptazyme ON/OFF ratio” value was 1.05. For U7C G9C U11A C12U C13G, the “aptazyme ON/OFF ratio” value was 1.03. With U7C G9C U11A C12U C13A the “aptazyme ON/OFF ratio” value was 1.02. For U7C G9C U10G, the “aptazyme ON/OFF ratio” value was 1.08. For U7C G9C U10A, the “aptazyme ON/OFF ratio” value was 1.06. With U7C G9C U10C the “aptazyme ON/OFF ratio” value was 1.14. For U7C G9C U10A U11A C12U C13U, the “aptazyme ON/OFF ratio” value was 1.09. In the case of U7C G9C U10A U11A C12U C13A, the “aptazyme ON/OFF ratio” value is reported as 1.04. For U7C G9C U10A U11A C12U C13G, the “aptazyme ON/OFF ratio” value was 1.06. In the case of U7C G9C U10C U11A C12U, the “aptazyme ON/OFF ratio” value is reported as 1. For U7C G9C U10C U11A C12G, the “aptazyme ON/OFF ratio” value was 0.941. In the case of U7C G9C U10C U11A C12A, the “aptazyme ON/OFF ratio” value is reported as 1.09. For U7C G9C U10G U11G C12A, the “aptazyme ON/OFF ratio” value was 1.11. For U7C G9C U10G U11G C12G, the “aptazyme ON/OFF ratio” value was 1.12. With U7C G9C U10G U11G C12U the “aptazyme ON/OFF ratio” value was 1.07. In the case of U7C G9C C12A C13U, the “aptazyme ON/OFF ratio” value is reported as 1.02. With U7C G9C C12A C13A the “aptazyme ON/OFF ratio” value was 1.05. In the case of U7C G9C C12A C13G, the “aptazyme ON/OFF ratio” value is reported as 1.07. For U7C G9C U10C U11G C12U, the “aptazyme ON/OFF ratio” value was 1.01. For U7C G9C U10C U11G C12G, the “aptazyme ON/OFF ratio” value was 1.14. For U7C G9C U10C U11G C12A, the “aptazyme ON/OFF ratio” value was 1.05. With U7C G9C U10C U11C C12A C13U the “aptazyme ON/OFF ratio” value was 1.04. In the case of U7C G9C U10C U11C C12A C13G, the “aptazyme ON/OFF ratio” value is reported as 1.05. In the case of U7C G9C U10C U11C C12A C13A, the “aptazyme ON/OFF ratio” value is reported as 1.04. For U7C G9C U10A U11C C12G, the “aptazyme ON/OFF ratio” value was 1.26. In the case of U7C G9C U10A U11C C12U, the “aptazyme ON/OFF ratio” value is reported as 1.04. With U7C G9C U10A U11C C12A the “aptazyme ON/OFF ratio” value was 1.07. With U7C G9U U10A U11C the “aptazyme ON/OFF ratio” value was 1.06. With U7C G9U U10A U11G the “aptazyme ON/OFF ratio” value was 1.31. With U7C G9U U10A U11A the “aptazyme ON/OFF ratio” value was 1.42. With U7C G9U U10A C12G the “aptazyme ON/OFF ratio” value was 1.47. In the case of U7C G9U U10A C12U, the “aptazyme ON/OFF ratio” value is reported as 1.37. In the case of U7C G9U U10A C12A, the “aptazyme ON/OFF ratio” value is reported as 1.82. In the case of U7C G9U U10A C13A, the “aptazyme ON/OFF ratio” value is reported as 1.18. For U7C G9U U10A C13U, the “aptazyme ON/OFF ratio” value was 1.22. In the case of U7C G9U U10A C13G, the “aptazyme ON/OFF ratio” value is reported as 1.04. For U7C G9U C12A, the “aptazyme ON/OFF ratio” value was 1.13. In the case of U7C G9U C12U, the “aptazyme ON/OFF ratio” value is reported as 1.07. With U7C G9U C12G the “aptazyme ON/OFF ratio” value was 1.14. In the case of U7C G9C U10C U11A C12G C13A, the “aptazyme ON/OFF ratio” value is reported as 1.31. With U7C G9C U10C U11A C12G C13G the “aptazyme ON/OFF ratio” value was 1.41. With U7C G9C U10C U11A C12G C13U the “aptazyme ON/OFF ratio” value was 1.14. For U7C G9C U10A U11A C12A, the “aptazyme ON/OFF ratio” value was 1.16. In the case of U7C G9C U10A U11A C12G, the “aptazyme ON/OFF ratio” value is reported as 1.09. With U7C G9C U10A U11A C12U the “aptazyme ON/OFF ratio” value was 1.05. With U7C G9U U10A U11A C12U C13G the “aptazyme ON/OFF ratio” value was 1.14. With U7C G9U U10A U11A C12U C13A the “aptazyme ON/OFF ratio” value was 1.27. For U7C G9U U10A U11A C12U C13U, the “aptazyme ON/OFF ratio” value was 1.25. With U7C G9C U10A C12A C13A the “aptazyme ON/OFF ratio” value was 1.09. For U7C G9C U10A C12A C13G, the “aptazyme ON/OFF ratio” value was 1.09. For U7C G9C U10A C12A C13U, the “aptazyme ON/OFF ratio” value was 1.09. For U7C G9C U11G C12U, the “aptazyme ON/OFF ratio” value was 1.08. With U7C G9C U11G C12G the “aptazyme ON/OFF ratio” value was 1.13. For U7C G9C U11G C12A, the “aptazyme ON/OFF ratio” value was 1.01. With U7C G9C U10G U11A C12U C13U the “aptazyme ON/OFF ratio” value was 1.15. With U7C G9C U10G U11A C12U C13A the “aptazyme ON/OFF ratio” value was 1.19. With U7C G9C U10G U11A C12U C13G the “aptazyme ON/OFF ratio” value was 1.05. For U7C G9U U10A U11C C12A, the “aptazyme ON/OFF ratio” value was 1.29. For U7C G9U U10A U11C C12U, the “aptazyme ON/OFF ratio” value was 1.1. For U7C G9U U10A U11C C12G, the “aptazyme ON/OFF ratio” value was 1.43. In the case of U7C G9U U10A C12U C13A, the “aptazyme ON/OFF ratio” value is reported as 1.15. In the case of U7C G9U U10A C12U C13U, the “aptazyme ON/OFF ratio” value is reported as 1.22. For U7C G9U U10A C12U C13G, the “aptazyme ON/OFF ratio” value was 1.11. With U7C G9U U10A U11C C12G C13U the “aptazyme ON/OFF ratio” value was 1.15. In the case of U7C G9U U10A U11C C12G C13A, the “aptazyme ON/OFF ratio” value is reported as 1.16. In the case of U7C G9U U10A U11C C12G C13G, the “aptazyme ON/OFF ratio” value is reported as 1.19. In the case of U7C G9C U10C U11C C12G C13U, the “aptazyme ON/OFF ratio” value is reported as 1.05. With U7C G9C U10C U11C C12G C13G the “aptazyme ON/OFF ratio” value was 1.07. With U7C G9C U10C U11C C12G C13A the “aptazyme ON/OFF ratio” value was 1.03. For U7C G9C U10A U11A C13G, the “aptazyme ON/OFF ratio” value was 1.05. With U7C G9C U10A U11A C13U the “aptazyme ON/OFF ratio” value was 1.05. With U7C G9C U10A U11A C13A the “aptazyme ON/OFF ratio” value was 1.11. For U7C G9C U10G U11C C12U C13G, the “aptazyme ON/OFF ratio” value was 1.05. With U7C G9C U10G U11C C12U C13U the “aptazyme ON/OFF ratio” value was 1.16. In the case of U7C G9C U10G U11C C12U C13A, the “aptazyme ON/OFF ratio” value is reported as 1.12. For U7C G9C U10G C12U C13G, the “aptazyme ON/OFF ratio” value was 1.03. With U7C G9C U10G C12U C13U the “aptazyme ON/OFF ratio” value was 1.17.
